Source: patent US8187596 (SCHERING, dated 2012)
One block for each binder: values may come before it.

B1: recombinant his6-tagged murine IL-1RAcP (receptor, UniProt Q61730 21-367, looked up)
chain: SERCDDWGLDTMRQIQVFEDEPARIKCPLFEHFLKYNYSTAHSSGLTLIWYWTRQDRDLEEPINFRLPENRISKEKDVLWFRPTLLNDTGNYTCMLRNTTYCSKVAFPLEVVQKDSCFNSAMRFPVHKMYIEHGIHKITCPNVDGYFPSSVKPSVTWYKGCTEIVDFHNVLPEGMNLSFFIPLVSNNGNYTCVVTYPENGRLFHLTRTVTVKVVGSPKDALPPQIYSPNDRVVYEKEPGEELVIPCKVYFSFIMDSHNEVWWTIDGKKPDDVTVDITINESVSYSSTEDETRTQILSIKKVTPEDLRRNYVCHARNTKGEAEQAAKVKQKVIPPRYTVELACGFGAT
notes: Described only as soluble, recombinant and his6-tagged; also called soluble his6-tagged murine IL-1RAcP; his6-tagged IL-1RAcP; not shown: his6 tag

Experiments:
[1] = biological target: T1, complex of plate-bound murine IL-1R1-Fc and murine IL-1β (murine, UniProt P13504 20-338; P10749 118-269, limits assumed); assay: receptor-ligand complex ELISA: IL-1R1-Fc coated, his6-IL-1RAcP 3 ug/ml in solution, IL-1β titrated, anti-his6-peroxidase detection
T1 construct: Formed in the ELISA well from coated IL-1R1-Fc and titrated IL-1β; It is the partner that captures his6-IL-1RAcP; also called IL-1/IL-1R1 complex; not shown: Fc part of the bought fusion protein
T1 sequence (looked up) 1: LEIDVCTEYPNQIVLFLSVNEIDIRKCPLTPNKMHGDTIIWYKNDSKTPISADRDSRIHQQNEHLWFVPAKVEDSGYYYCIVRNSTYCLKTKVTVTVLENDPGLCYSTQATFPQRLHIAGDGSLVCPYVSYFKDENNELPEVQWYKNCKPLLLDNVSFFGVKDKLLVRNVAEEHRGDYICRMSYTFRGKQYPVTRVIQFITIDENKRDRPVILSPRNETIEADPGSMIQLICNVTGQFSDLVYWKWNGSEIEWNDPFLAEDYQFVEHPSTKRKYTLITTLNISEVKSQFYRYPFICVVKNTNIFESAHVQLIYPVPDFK
T1 sequence (looked up) 2: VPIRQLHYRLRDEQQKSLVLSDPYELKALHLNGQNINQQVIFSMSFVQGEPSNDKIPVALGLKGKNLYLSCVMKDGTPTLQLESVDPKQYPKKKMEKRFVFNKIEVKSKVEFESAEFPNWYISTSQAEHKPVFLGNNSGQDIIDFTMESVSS
Method: (§1) Murine IL-1β or IL-33 was titrated into plates containing soluble his6-tagged murine IL-1RAcP and plate-bound ST2-Fc (FIG. 8A) or IL-1R1-Fc (FIG. 8B). Peroxidase-conjugated anti-his6 was used as a detection antibody. Data is representative of 2 experiments. Data represent the mean+/-SEM of duplicate wells.
(§2) Receptor-ligand complex ELISA: 3 µg/mlmurine ST2-Fc or IL-1R1-Fc fusion proteins (R&D Systems) in PBS were coated overnight onto MaxiSorp plates (Nunc). After washing, plates were incubated with 3 µg/ml recombinant his6-tagged murine IL-1RAcP and increasing concentrations of murine IL-33 or IL-1β in PBS/1% bovine serum albumin/ 0.05% Tween-20® polyoxyethylene sorbitan monolaurate for 1.5 hours. Plates were washed and incubated with anti-his6-peroxidase (Roche Diagnostics) for 1 hour, washed again, developed with TMB Peroxidase substrate (KPL), stopped with […], and read on a plate reader at 450-570 nm.

[2] = biological target: B1; assay: not described (data not shown)
[3] = biological target: T2, murine IL-1R1-Fc fusion protein (R&D Systems) (murine, UniProt P13504 20-338, limits assumed); assay: receptor-ligand complex ELISA: IL-1β titrated onto coated IL-1R1-Fc with his6-IL-1RAcP present; the readout is captured his6-IL-1RAcP (ternary complex)
T2 construct: Bought reagent (R&D Systems), coated on the plate at 3 ug/ml; not shown: Fc part of the bought fusion protein
T2 sequence (looked up): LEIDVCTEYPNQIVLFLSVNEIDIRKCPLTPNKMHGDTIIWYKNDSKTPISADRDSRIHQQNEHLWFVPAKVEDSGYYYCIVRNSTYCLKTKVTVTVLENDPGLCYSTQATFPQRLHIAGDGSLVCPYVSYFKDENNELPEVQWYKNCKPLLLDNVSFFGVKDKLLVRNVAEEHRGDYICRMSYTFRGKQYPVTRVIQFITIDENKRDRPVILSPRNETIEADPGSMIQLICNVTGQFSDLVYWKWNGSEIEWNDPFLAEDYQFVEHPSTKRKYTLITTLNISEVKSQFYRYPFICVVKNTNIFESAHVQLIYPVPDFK
Method: as §1, §2

Binder: B1
- binding result [1]: binds

- binding result [2]: no binding
B2: murine IL-33 (ligand, UniProt Q8BVZ5 109-266, looked up)
chain: SIQGTSLLTQSPASLSTYNDQSVSFVLENGCYVINVDDSGKDQEQDQVLLRYYESPCPASQSGDGVDGKKLMVNMSPIKDTDIWLHANDKDYSVELQRGDVSPPEQAFFVLHKKSSDFVSFECKNLPGTYIGVKDNQLALVEEKDESCNNIMFKLSKI
notes: also called mouse IL-33

- binding result [3]: binds
B3: murine IL-1β (ligand, UniProt P10749 118-269, looked up)
chain: VPIRQLHYRLRDEQQKSLVLSDPYELKALHLNGQNINQQVIFSMSFVQGEPSNDKIPVALGLKGKNLYLSCVMKDGTPTLQLESVDPKQYPKKKMEKRFVFNKIEVKSKVEFESAEFPNWYISTSQAEHKPVFLGNNSGQDIIDFTMESVSS
notes: also called mouse IL-1β
